Paper PMC2173631 (The Journal of Cell Biology, 2003)

Key:
[1] = biological target: T1, DAGLβ (Mus musculus, UniProt Q91WC9); experiment: radiolabeled DAG hydrolysis assay, homogenates of transfected COS cells; type: biochemical
T1 sequence (Q91WC9 1-669): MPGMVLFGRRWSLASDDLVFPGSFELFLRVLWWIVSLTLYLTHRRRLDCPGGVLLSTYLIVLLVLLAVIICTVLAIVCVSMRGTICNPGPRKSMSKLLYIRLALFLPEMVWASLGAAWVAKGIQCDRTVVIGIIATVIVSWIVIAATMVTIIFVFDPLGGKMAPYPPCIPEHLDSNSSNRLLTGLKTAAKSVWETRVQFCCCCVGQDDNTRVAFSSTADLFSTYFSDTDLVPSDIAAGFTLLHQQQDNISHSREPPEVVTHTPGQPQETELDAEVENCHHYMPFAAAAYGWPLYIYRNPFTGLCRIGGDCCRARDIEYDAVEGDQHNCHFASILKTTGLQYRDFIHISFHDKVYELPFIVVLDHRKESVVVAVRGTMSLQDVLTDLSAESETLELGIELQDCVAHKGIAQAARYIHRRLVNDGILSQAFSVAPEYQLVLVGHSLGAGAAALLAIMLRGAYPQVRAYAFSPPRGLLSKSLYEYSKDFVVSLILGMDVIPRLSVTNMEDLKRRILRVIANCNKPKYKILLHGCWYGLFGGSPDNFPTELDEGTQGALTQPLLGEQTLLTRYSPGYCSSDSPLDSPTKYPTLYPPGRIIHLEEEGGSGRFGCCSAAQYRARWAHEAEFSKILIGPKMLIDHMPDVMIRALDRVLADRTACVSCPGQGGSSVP

[2] = substrate: CCCCC/C=C\C/C=C\C/C=C\C/C=C\CCCC(=O)O[C@@H](CO)COC(=O)CCCCCCCCCCCCCCCCC; experiment: cells, lysate or membranes

Q: `CCCCCCCCCCC[C@@H](C[C@@H]1OC(=O)[C@H]1CCCCCC)OC(=O)[C@H](CC(C)C)NC=O` [THL, tetrahydrolipstatin] was tested. Which IC50 [1] did it give?
A: 100 nM

B1: DAGLα (Homo sapiens) (protein)
chain: MPGIVVFRRRWSVGSDDLVLPAIFLFLLHTTWFVILSVVLFGLVYNPHEACSLNLVDHGRGYLGILLSCMIAEMAIIWLSMRGGILYTEPRDSMQYVLYVRLAILVIEFIYAIVGIVWLTQYYTSCNDLTAKNVTLGMVVCNWVVILSVCITVLCVFDPTGRTFVKLRATKRRQRNLRTYNLRHRLEEGQATSWSRRLKVFLCCTRTKDSQSDAYSEIAYLFAEFFRDLDIVPSDIIAGLVLLRQRQRAKRNAVLDEANNDILAFLSGMPVTRNTKYLDLKNSQEMLRYKEVCYYMLFALAAYGWPMYLMRKPACGLCQLARSCSCCLCPARPRFAPGVTIEEDNCCGCNAIAIRRHFLDENMTAVDIVYTSCHDAVYETPFYVAVDHDKKKVVISIRGTLSPKDALTDLTGDAERLPVEGHHGTWLGHKGMVLSAEYIKKKLEQEMVLSQAFGRDLGRGTKHYGLIVVGHSLGAGTAAILSFLLRPQYPTLKCFAYSPPGGLLSEDAMEYSKEFVTAVVLGKDLVPRIGLSQLEGFRRQLLDVLQRSTKPKWRIIVGATKCIPKSELPEEVEVTTLASTRLWTHPSDLTIALSASTPLYPPGRIIHVVHNHPAEQCCCCEQEEPTYFAIWGDNKAFNEVIISPAMLHEHLPYVVMEGLNKVLENYNKGKTALLSAAKVMVSPTEVDLTPELIFQQQPLPTGPPMPTGLALELPTADHRNSSVRSKSQSEMSLEGFSEGRLLSPVVAAAARQDPVELLLLSTQERLAAELQARRAPLATMESLSDTESLYSFDSRRSSGFRSIRGSPSLHAVLERDEGHLFYIDPAIPEENPSLSSRTELLAADSLSKHSQDTQPLEAALGSGGVTPERPPSAAANDEEEEVGGGGGGPASRGELALHNGRLGDSPSPQVLEFAEFIDSLFNLDSKSSSFQDLYCMVVPESPTSDYAEGPKSPSQQEILLRAQFEPNLVPKPPRLFAGSADPSSGISLSPSFPLSSSGELMDLTPTGLSSQECLAADKIRTSTPTGHGASPAKQDELVISAR
Q: For B1, which Km [2] is on record?
A: 154.7 ± 19.1 µM

B2: DAGLβ (Mus musculus) (protein)
chain: MPGMVLFGRRWSLASDDLVFPGSFELFLRVLWWIVSLTLYLTHRRRLDCPGGVLLSTYLIVLLVLLAVIICTVLAIVCVSMRGTICNPGPRKSMSKLLYIRLALFLPEMVWASLGAAWVAKGIQCDRTVVIGIIATVIVSWIVIAATMVTIIFVFDPLGGKMAPYPPCIPEHLDSNSSNRLLTGLKTAAKSVWETRVQFCCCCVGQDDNTRVAFSSTADLFSTYFSDTDLVPSDIAAGFTLLHQQQDNISHSREPPEVVTHTPGQPQETELDAEVENCHHYMPFAAAAYGWPLYIYRNPFTGLCRIGGDCCRARDIEYDAVEGDQHNCHFASILKTTGLQYRDFIHISFHDKVYELPFIVVLDHRKESVVVAVRGTMSLQDVLTDLSAESETLELGIELQDCVAHKGIAQAARYIHRRLVNDGILSQAFSVAPEYQLVLVGHSLGAGAAALLAIMLRGAYPQVRAYAFSPPRGLLSKSLYEYSKDFVVSLILGMDVIPRLSVTNMEDLKRRILRVIANCNKPKYKILLHGCWYGLFGGSPDNFPTELDEGTQGALTQPLLGEQTLLTRYSPGYCSSDSPLDSPTKYPTLYPPGRIIHLEEEGGSGRFGCCSAAQYRARWAHEAEFSKILIGPKMLIDHMPDVMIRALDRVLADRTACVSCPGQGGSSVP
Q: For B2, which Km [2] is on record?
A: 74.1 ± 4.9 µM
